Experimental findings from publication PMC12711917 are described below.

For this test, the target named is 5-TAMRA-labeled human CaV1.2-IQ peptide (human).
Sequence of 5-TAMRA-labeled human CaV1.2-IQ peptide (human) (Q13936 1659-1692): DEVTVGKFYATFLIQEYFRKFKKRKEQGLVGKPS

Turning to “calmodulin, wild type (from UniProt P0DP23 1-149) (natural protein)”, the f300 (calcium-dependent inactivation of the CaV1.2 channel; whole-cell voltage clamp of HEK293 cells co-transfected with human CaV1.2 α1C, β2a, α2δ and calmodulin) stood at 0.57.
